Fewer inactive variants are shown than the library holds.

B1: TPR 5TU (parent)
chain: GGAUCUUCUCGAUCUAACAAAAAAGACAAAUCUGCCACAAAGCUUGAGAGCAUCUUCGGAUGCAGAGGCGGCAGCCUUCGGUGGCGCGAUAGCGCCAACGUUCUCAACUAUGACACGCAAAACGCGUGCUCCGUUGAAUGGAGUUUAUCAUG

In this data set the parent is B1. Briefly: polymerase ribozyme fitness, log enrichment relative to wild type (log ratio); higher = more active; in vitro selection for triplet polymerase activity. An outline of the steps: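 A heterodimeric triplet polymerase ribozyme had each of its subunits mutagenized by PCR into a library, which was transcribed. One round of in vitro selection, done in triplicate, annealed each library with a biotinylated primer, its partner subunit and triplets, then incubated it frozen at −7 °C before gel excision of extended constructs, streptavidin-bead capture and RT-PCR. Fitness is the logarithm of genotype enrichment relative to wild-type enrichment, based on Illumina sequencing of inputs and outputs and inverse-variance-weighted replicate averages. A base-2 logarithm is used, and genotypes were kept only with ≥10 input reads and ≥1 read per output.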
On to C57G A89U A98U, for which the “polymerase ribozyme fitness (log ratio)” value is -1.18.
Then G128A G133A U134C A150G, with -3.52.
As for A12G A23C G25A A41G G94C C96U C116U G143C, the “polymerase ribozyme fitness (log ratio)” value is at most -4.2.
The result for C63U C96U A150G reads -1.22.
The result for A12U G84C A142G reads -3.93.
Then A39C U45A G48U C57G G70A G83C C96U A115G G141A, with at most -4.2.
As to C85U A91U C95G G140U, the “polymerase ribozyme fitness (log ratio)” value is at most -4.2.
Then G83A U101C, with -2.23; and G71U C108U, with at most -4.2.
The result for A21C A26C G71C C76G C87A C108U reads at most -4.2; that for A47C C54U G84A U109G, -1.84; that for A24C G46C A73G C93A A110U A147U, at most -4.2.
As for A28U A73U A91G C125A A137C, the “polymerase ribozyme fitness (log ratio)” value is at most -4.2.
As for A20G G42C G84A C149A, the “polymerase ribozyme fitness (log ratio)” value is at most -4.2.
The result for C76A C129G G136A reads -3.95.
Then A21C G88A U104G A107U, with at most -4.2.
In the case of G84U A142G, the “polymerase ribozyme fitness (log ratio)” value is -3.27.
Then G11C A12U C14A A28G A52C G62C U78A G112C, with at most -4.2; and A12C C129G, with -3.9; and U31C C54A C93G, with at most -4.2.
The result for G92U C93A G133U G140A reads at most -4.2; that for A40C A98G C131U U134A, -2.13.
With A52G C63U C93U U145G C149U, the “polymerase ribozyme fitness (log ratio)” value was -4.11.
On to C87U A91G C105G, for which the “polymerase ribozyme fitness (log ratio)” value is -4.02.
Then C54U A138G, with -3.19; and G86U A89G U145A, with -3.28.
The result for U9A C63U C69U C76U C93A A113U G136C reads at most -4.2; that for U9G C35A A39G C87A C125U G143A U151A, -3.88; that for G81U G92U U148G G152A, -3.95.
The result for A37U G42A C85A A138G reads at most -4.2; that for C93A C116G A142G, -3.07; that for A12U A28U U55G A66C G74C G80C C85A C87U C96U, at most -4.2.
Turning to A16U A39U G84A G92U C103U C149G U151C, the “polymerase ribozyme fitness (log ratio)” value was at most -4.2.
Then A12U A16U A17U C27U A47U G48A C76G G86U U145A G152U, with at most -4.2.
Then U4A U45A C57U A91C, with at most -4.2; and A24G G74A C93G G140C U151G, with at most -4.2; and C96U G100U, with -3.13.
In the case of A47C C54U U55A U101C, the “polymerase ribozyme fitness (log ratio)” value was 0.0498.
The result for U15G G25U reads -3.22; that for A16C C51A A89U G94A A98U, -3.95.
Then G46A A49C U101G, with at most -4.2; and A49U G62C C123U, with -2.38.
As for U13C G83C C96U C114U, the “polymerase ribozyme fitness (log ratio)” value is -4.13.
Take G58C G83U C85G: the “polymerase ribozyme fitness (log ratio)” value was -3.33.
Then G11A C51U U55A U56G A142C, with -3.56; and A20G A29C G46U C54U C96U C116A U148A, with at most -4.2; and A37C C57U G86A C95G C99G C131U, with at most -4.2.
The result for A39G C87U A89G G126A C132U reads at most -4.2; that for U15G A21C A49C C54U G86A, at most -4.2.
Then U55A A91U C96A C125G A142G, with at most -4.2.
As to G34U G67A C76U C85A, the “polymerase ribozyme fitness (log ratio)” value was at most -4.2.
The result for A16U A19G U31A C38U G42C U44G G59U C96G reads at most -4.2.
The result for U4A C5G G58A A73U C75U C85A G100A C105G U145A reads at most -4.2; that for C27U C36A C108G U139G U145C, -3.87; that for G92A C103U, -2.02.
Then G48C G58A A91G, with -3.21.
Consider C99G G117C A122G, for which the “polymerase ribozyme fitness (log ratio)” value was -1.51.
On to U90G G100A C116U, for which the “polymerase ribozyme fitness (log ratio)” value is at most -4.2.
The result for G84C G117C reads -1.73; that for A40U U55A U101C A120C, -0.406.
Then C8U A19C G50A C96U, with at most -4.2; and C57U G68A C72U G92A, with at most -4.2.
For the variant A66C A73G G80C C114A G141A, the “polymerase ribozyme fitness (log ratio)” value is at most -4.2.
Then A60U, with -0.665; and C93A C118U C125A A142G, with at most -4.2; and U6A G86A C87G, with at most -4.2.
Then G11C A20U C36U A60G C93G, with at most -4.2.
Then C63U A91U C93G U139G, with at most -4.2; and A12G C87G, with -3.83; and A12C A21U A64C G84U U127C A138U, with at most -4.2.
As for G88C C116U, the “polymerase ribozyme fitness (log ratio)” value is -3.99.
The result for C14U A29U G71A G88C C93A reads at most -4.2; that for A39U G46C G48A G50C U56A G84U, at most -4.2; that for U6C A41G U56G G59A U61G C76A A91C C95G G124A, at most -4.2.
For the variant C36A C87G A107C, the “polymerase ribozyme fitness (log ratio)” value is at most -4.2.
In the case of G50U U102A, the “polymerase ribozyme fitness (log ratio)” value is -0.888.
The result for C54A A64G U111C G133U G140A G143A reads at most -4.2.
The result for U15G C116U reads 0.239.
On to A12U G80U G84C A97G U134C, for which the “polymerase ribozyme fitness (log ratio)” value is at most -4.2.
Then G83C C132A, with -2.69; and A23G C27G A40U C75U G81C G94C U101A U109A, with at most -4.2.
Then C85U U139G, with -0.28; and A41G C54G U104A A119G G126U, with -1.16.
Consider G50C C125U, for which the “polymerase ribozyme fitness (log ratio)” value is -3.89.

The values are drawn from the RNAGym collection of RNA variant scans (doi:10.1073/pnas.2313332121).
